Patent publication CN112225809A (FUZHOU CHUANGFANG PHARMACEUTICAL TECH CO LTD, dated 2021)

B1: UM1-56 (antibody, mouse IgG1, V domains shown)
VH: EVKLVESGGGLVKPGGSLKLSCAASGFTFSTYGMSWVRQTPEKRLEWVATISGGGRYTYYPDSVKGRFTISRDNAKNNLYLQMSSLRSEDTALYYCARQKGTTWFAHWGQGTLVTVSA
VL: not shown
notes: Mouse hybridoma antibody purified on Protein G; primers were designed on mouse IgG1 and kappa; also called 鼠源PD-1单克隆抗体UM1-56
B2: hUM1-30 (antibody, human IgG4 S228P, kappa, V domains shown)
VH: EVQLVESGGGLVQPGGSLRLSCAASGFTFSTYGMSWVRQAPGKGLEWVSTISGGGRYTYYPDSVKGRFTISRDNSKNTLYLQMNSLRAEDTAVYYCARQKGTTWFAHWGQGTLVTVSS
VL: DIQMTQSPSSLSASVGDRVTITCRASESVDDNGISFMNWFQQKPGKAPKLLIYAASNQGSGVPSRFSGSGSGTDFTLTISSLQPEDFATYYCQQSKEVPWTFGQGTKVEIKR
notes: Humanised from UM1-56; also called 人源化PD-1单克隆抗体(hUM1-30); UM1-56H-1 + UM1-56K-2

Legend:
[1] = target: T1, hPD1/Fc of human IgG1 (fluorescently labelled) (human, UniProt Q15116 25-167, limits assumed, labelled with Alexa Fluor 488 (Example 2); printed as hPD-1/hFc-FITC in Example 5.5); assay: flow cytometry blocking assay: Alexa Fluor 488 labelled hPD1/Fc on SPC-A1-PDL1 cells
T1 construct: also called hPD-1/hFc-FITC; 荧光标记的PD1(Dimeric); not shown: Fc of human IgG1

[2] = target: T2, Human PD1/PDCD1 Protein Biotinylated (Sinobiological, Cat.No.10377-H03H-B) (human, UniProt Q15116 25-167, biotinylated); assay: BLI (Octet Red96), biotinylated PD-1 on SA sensor, antibody in solution from 50 nM in two-fold dilutions
T2 construct: Bought reagent; also called 抗原; 人PD-1
T2 sequence (Q15116 25-167 limits assumed): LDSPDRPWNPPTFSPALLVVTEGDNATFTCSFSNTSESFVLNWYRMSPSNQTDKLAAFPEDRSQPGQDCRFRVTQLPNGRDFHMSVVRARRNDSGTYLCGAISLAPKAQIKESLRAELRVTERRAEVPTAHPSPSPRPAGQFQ

T1 sequence (Q15116 25-167 limits assumed): as above

binding result [1] | Kd [2] | koff [2] | kon [2] | Binder
binds | – | – | – | B1
– | 3.34 pM | 5.43e-06 s⁻¹ | 1.63e+06 M⁻¹ s⁻¹ | B2
